Source: US20250276081A1, “Mucin-Active Proteases and Methods of Use” (priority 2022, published 2025)

Assays:
[1] = target: T1, cell surface CD43 (K562, CCRF-CEM, CCRF-HSB-2 cells) (Homo sapiens, UniProt P16150); experiment: CD43 flow cytometry of leukemia cell lines; assay type: cell-based; details: 50 nM StcE, 1 h
T1 construct: endogenous in cells; host or cells: K562, CCRF-CEM, CCRF-HSB-2
T1 sequence (P16150 20-400): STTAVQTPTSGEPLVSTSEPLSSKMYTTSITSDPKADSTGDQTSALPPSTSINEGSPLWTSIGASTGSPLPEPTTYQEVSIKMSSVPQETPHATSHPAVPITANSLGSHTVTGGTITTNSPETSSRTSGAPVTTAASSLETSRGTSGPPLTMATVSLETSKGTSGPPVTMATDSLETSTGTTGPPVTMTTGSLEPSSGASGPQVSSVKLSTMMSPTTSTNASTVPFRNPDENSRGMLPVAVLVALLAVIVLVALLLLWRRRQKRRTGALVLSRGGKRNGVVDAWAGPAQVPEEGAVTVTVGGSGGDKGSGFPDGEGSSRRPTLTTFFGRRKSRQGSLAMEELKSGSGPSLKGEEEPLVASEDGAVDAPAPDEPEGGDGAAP
Description: (§1) CD43 and Siglec-7-Fc flow cytometry. 1×10^6 K562, CCRF-CEM, or CCRF-HSB-2 cells growing in log phase were harvested, resuspended in 1 mL of serum-free RPMI, and treated with either vehicle or 50 nM StcE for 1 h. Cells were subsequently spun down at 600× g and washed twice in PBS. Cells were then resuspended in FACS buffer (0.5% BSA in PBS) at 1×10^6 cells/mL and aliquoted into a V-bottom 96-well plate (Corning) at 1×10^5 cells/well. For staining, a precomplex solution of 1 μg/mL Siglec-7-Fc (R&D Systems) and 1 μg/mL Alexa Fluor 488-antihFc was made up in FACS buffer and incubated on ice for 1 h. Alexa Fluor 647 CD43/sialophorin antibody (MEM-59 clone) (Novus Biologicals) was subsequently added to the precomplex solution prior to staining. Cells were stained in 100 μL of staining solution for 30 min, washed twice with FACS buffer, and analyzed by flow cytometry using a BD Accuri C6 plus.

[2] = test system: Siglec-7 ligand (K562, CCRF-CEM, CCRF-HSB-2 cells); experiment: Siglec-7-Fc flow cytometry of leukemia cell lines; assay type: cell-based; details: 50 nM StcE, 1 h
Description: as §1

[3] = In vivo toxicity of StcE (maximum tolerated dose, necropsy); set-up: species or system mouse
Description: (§2) In vivo toxicity studies. 10-week-old C57BL/6 mice (bred in-house) were injected with PBS or StcE (0.15 mg/kg or 15 mg/kg) via intravenous injection. 9-week-old female BALB/cJ mice (Jackson Labs) were injected with PBS or 10 mg/kg αHER2-eStcE via intraperitoneal injection. Mice were submitted to the Animal Diagnostic Lab at Stanford University for necropsy and complete blood count (CBC) analyses 3 h post injection.

[4] = Complete blood count (CBC) after StcE injection; assay type: in vivo, mouse; details: 3 h, C57BL/6, n=1
Description: as §2

[5] = test system: mucins in plasma and tissues; experiment: In vivo mucin degradation Western blot after StcE; set-up: species or system mouse; details: 0.25 mg/kg
[6] = target: T2, cell surface mucins (CD43) on mixed K562^±HER2 cells (Homo sapiens, UniProt P16150); experiment: K562 mixed cell CD43 cleavage assay; assay type: cell-based; details: 1 nM, overnight
T2 construct: endogenous in cells; host or cells: K562 and K562^HER2 (HER2 retrovirally transduced; CD43 endogenous)
T2 sequence (P16150 20-400): T1 sequence (P16150 20-400)
Description: K562 mixed cell CD43 cleavage assay. 2.5×10^5 K562 and K562^HER2 cells were allocated per well to a 96-well ultra-low attachment round bottom plate in 150 μL of complete media. 50 μL of mucinases in PBS were added to wells and the plate was incubated (overnight unless stated otherwise) at 37° C. Cells were washed twice with cold FACS buffer with 2 mM EDTA, once with cold FACS buffer, and stained with Alexa Fluor 488 anti-human CD340 (erbB2/HER-2) antibody (24D2 clone) (BioLegend) and Alexa Fluor 647 CD43/sialophorin antibody (MEM^−59 clone) (Novus Biologicals) in FACS buffer supplemented with 0.1% benzonase on ice protected from light. Cells were washed three times with cold FACS buffer with 2 mM EDTA and stained with 1 μM Sytox AADvanced (Thermo Fisher Scientific) or 1 μM Sytox Blue in FACS buffer with 2 mM EDTA for 5 min on ice prior to analysis using a BD Accuri C6 plus or MACSQuant Analyzer 10 Flow Cytometer (Miltenyi Biotec). Samples were compensated using single-stained controls in FlowJo v. 10.0. Unstained and PBS-treated samples were used to define 0% and 100% cell surface CD43, respectively, and each sample was normalized to percent CD43 within each replicate. Using GraphPad Prism 9, replicates were fitted to inhibitor concentration vs normalized response.

**Q.** For “StcE: secreted protease of C1 esterase inhibitor, zinc metalloprotease pan mucinase from E. coli O157:H7; SEQ ID NO:1”, which “Cell surface CD43 level” value [1] is on record?
**A.** loss of cell surface CD43

**Q.** And the Siglec-7 ligand residency [2]?
**A.** loss of cell surface CD43 and overall Siglec-7 ligand residency

**Q.** And the “Necropsy and CBC findings” value ([3]; 3 hours post injection of 15 mg/kg StcE I.V.)?
**A.** hemorrhages underneath the skull, ecchymoses throughout the gastrointestinal tract, neutrophil accumulation in the lungs, and platelet depletion

**Q.** What about the Maximum tolerated dose ([3]; Balb/c and C57BL/6 mice) of the same substance?
**A.** 0.25 mg/kg

**Q.** What about the “Toxicity above the maximum tolerated dose” value ([3]; doses higher than 0.25 mg/kg) of the same substance?
**A.** systemic toxicity

**Q.** What about the Basophil absolute ([4]; StcE 0.15 mg/kg I.V.) of the same substance?
**A.** 0

**Q.** What about the Basophils ([4]; StcE 0.15 mg/kg I.V.) of the same substance?
**A.** 0%

**Q.** And the Eosinophil absolute ([4]; StcE 0.15 mg/kg I.V.)?
**A.** 44

**Q.** And the Eosinophils ([4]; StcE 0.15 mg/kg I.V.)?
**A.** 1%

**Q.** And the “Hematocrit (HCT)” value ([4]; StcE 0.15 mg/kg I.V.)?
**A.** 45.5%

**Q.** What about the “Hemoglobin (HGB)” value ([4]; StcE 0.15 mg/kg I.V.) of the same substance?
**A.** 14 gm/dL

**Q.** What about the “Immature reticulocyte fraction (IRF)” value ([4]; StcE 0.15 mg/kg I.V.) of the same substance?
**A.** 54.9%

**Q.** And the “Low fluorescence reticulocytes (LFR)” value ([4]; StcE 0.15 mg/kg I.V.)?
**A.** 45.1%

**Q.** What about the Lymphocyte absolute ([4]; StcE 0.15 mg/kg I.V.) of the same substance?
**A.** 4085

**Q.** And the Lymphocytes ([4]; StcE 0.15 mg/kg I.V.)?
**A.** 92%

**Q.** What about the “MHC concentration (MCHC)” value ([4]; StcE 0.15 mg/kg I.V.) of the same substance?
**A.** 30.8 g/dL

**Q.** What about the “Mean corpuscular hemoglobin (MCH)” value ([4]; StcE 0.15 mg/kg I.V.) of the same substance?
**A.** 14.3 pg

**Q.** And the “Mean corpuscular volume (MCV)” value ([4]; StcE 0.15 mg/kg I.V.)?
**A.** 46.5 fL

**Q.** And the “Mean platelet volume (MPV)” value ([4]; StcE 0.15 mg/kg I.V.)?
**A.** 7.3 fL

**Q.** What about the “Medium fluorescence reticulocytes (MFR)” value ([4]; StcE 0.15 mg/kg I.V.) of the same substance?
**A.** 18.7%

**Q.** And the Monocyte absolute ([4]; StcE 0.15 mg/kg I.V.)?
**A.** 133

**Q.** What about the Monocytes ([4]; StcE 0.15 mg/kg I.V.) of the same substance?
**A.** 3%

**Q.** And the Neutrophil absolute ([4]; StcE 0.15 mg/kg I.V.)?
**A.** 178

**Q.** And the Neutrophils ([4]; StcE 0.15 mg/kg I.V.)?
**A.** 4%

**Q.** And the Platelet count ([4]; StcE 0.15 mg/kg I.V.)?
**A.** 1345 K/μL

**Q.** And the “Platelet distribution width (PDW)” value ([4]; StcE 0.15 mg/kg I.V.)?
**A.** 8.9 fL

**Q.** And the Platelet estimate ([4]; StcE 0.15 mg/kg I.V.)?
**A.** Adequate

**Q.** And the “Platelet-large cell ratio (P-LCR)” value ([4]; StcE 0.15 mg/kg I.V.)?
**A.** 8.7%

**Q.** What about the RBC morphology ([4]; StcE 0.15 mg/kg I.V.) of the same substance?
**A.** Normal

**Q.** And the “Red blood cell (RBC)” value ([4]; StcE 0.15 mg/kg I.V.)?
**A.** 9.78 M/μL

**Q.** What about the “Red cell distribution width (RDW)” value ([4]; StcE 0.15 mg/kg I.V.) of the same substance?
**A.** 19.2%

**Q.** And the Reticulocyte absolute ([4]; StcE 0.15 mg/kg I.V.)?
**A.** 442056 µL⁻¹

**Q.** What about the Reticulocyte count ([4]; StcE 0.15 mg/kg I.V.) of the same substance?
**A.** 4.52%

**Q.** And the “White blood cell (WBC)” value ([4]; StcE 0.15 mg/kg I.V.)?
**A.** 4.44 K/μL

**Q.** What about the Basophil absolute ([4]; StcE 15 mg/kg I.V.) of the same substance?
**A.** 0

**Q.** What about the Basophils ([4]; StcE 15 mg/kg I.V.) of the same substance?
**A.** 0%

**Q.** What about the Eosinophil absolute ([4]; StcE 15 mg/kg I.V.) of the same substance?
**A.** 39

**Q.** And the Eosinophils ([4]; StcE 15 mg/kg I.V.)?
**A.** 1%

**Q.** What about the “Hematocrit (HCT)” value ([4]; StcE 15 mg/kg I.V.) of the same substance?
**A.** 58.9%

**Q.** What about the “Hemoglobin (HGB)” value ([4]; StcE 15 mg/kg I.V.) of the same substance?
**A.** 18.3 gm/dL

**Q.** And the “Immature reticulocyte fraction (IRF)” value ([4]; StcE 15 mg/kg I.V.)?
**A.** 52.3%

**Q.** And the “Low fluorescence reticulocytes (LFR)” value ([4]; StcE 15 mg/kg I.V.)?
**A.** 47.7%

**Q.** What about the Lymphocyte absolute ([4]; StcE 15 mg/kg I.V.) of the same substance?
**A.** 1458

**Q.** And the Lymphocytes ([4]; StcE 15 mg/kg I.V.)?
**A.** 37%

**Q.** What about the “MHC concentration (MCHC)” value ([4]; StcE 15 mg/kg I.V.) of the same substance?
**A.** 31.1 g/dL

**Q.** And the “Mean corpuscular hemoglobin (MCH)” value ([4]; StcE 15 mg/kg I.V.)?
**A.** 14 pg

**Q.** And the “Mean corpuscular volume (MCV)” value ([4]; StcE 15 mg/kg I.V.)?
**A.** 44.9 fL

**Q.** What about the “Mean platelet volume (MPV)” value ([4]; StcE 15 mg/kg I.V.) of the same substance?
**A.** 6.8 fL

**Q.** What about the “Medium fluorescence reticulocytes (MFR)” value ([4]; StcE 15 mg/kg I.V.) of the same substance?
**A.** 28%

**Q.** And the Monocyte absolute ([4]; StcE 15 mg/kg I.V.)?
**A.** 315

**Q.** What about the Monocytes ([4]; StcE 15 mg/kg I.V.) of the same substance?
**A.** 8%

**Q.** And the Neutrophil absolute ([4]; StcE 15 mg/kg I.V.)?
**A.** 2128

**Q.** What about the Neutrophils ([4]; StcE 15 mg/kg I.V.) of the same substance?
**A.** 54%

**Q.** What about the Platelet count ([4]; StcE 15 mg/kg I.V.) of the same substance?
**A.** 82 K/μL

**Q.** And the “Platelet distribution width (PDW)” value ([4]; StcE 15 mg/kg I.V.)?
**A.** 7.2 fL

**Q.** What about the Platelet estimate ([4]; StcE 15 mg/kg I.V.) of the same substance?
**A.** Decreased

**Q.** And the “Platelet-large cell ratio (P-LCR)” value ([4]; StcE 15 mg/kg I.V.)?
**A.** 5.5%

**Q.** What about the RBC morphology ([4]; StcE 15 mg/kg I.V.) of the same substance?
**A.** Normal

**Q.** And the “Red blood cell (RBC)” value ([4]; StcE 15 mg/kg I.V.)?
**A.** 13.11 M/μL

**Q.** And the “Red cell distribution width (RDW)” value ([4]; StcE 15 mg/kg I.V.)?
**A.** 22.2%

**Q.** What about the Reticulocyte absolute ([4]; StcE 15 mg/kg I.V.) of the same substance?
**A.** 860016 µL⁻¹

**Q.** And the Reticulocyte count ([4]; StcE 15 mg/kg I.V.)?
**A.** 6.56%

**Q.** What about the “White blood cell (WBC)” value ([4]; StcE 15 mg/kg I.V.) of the same substance?
**A.** 3.94 K/μL

**Q.** What about the “Digestion of mucins in plasma and tissues” value [5] of the same substance?
**A.** digested mucins throughout the body

**Q.** And the “Removal of cell surface mucins on HER2- cells” value [6]?
**A.** complete removal

**Q.** And the “Removal of cell surface mucins on HER2^+ cells” value [6]?
**A.** complete removal
